Laboratory results published in publication PMC8130932 (PLoS Pathogens, 2021).

B1: FB 9D (antibody, V domains shown)
VH: QVQLVESGAEVKKPGESLKISCQGSGYRFNSYWIAWVRQMPGKGLEWMGSIFPTDSDVRYNPSFQGQVTISADKSISFAYLQWSSLKASDTAIYYCARHWASMVRGVIRASHYYGMDVWGQGTTVTVSS
VL: QPVLTQPPSASGSPGQSVTISCSGASSDIGKYNYVSWYQQLPGKAPKLLIYEVTKRPSGVPDRFSGSKSGNTASLTVSGLQADDEADYYCSSYAFGGSDTRVFGGGTKLTVL
notes: source: HEK293T, transfected; culture supernatant or purified
B2: FM 7B (antibody, V domains shown)
VH: EVQLVQSGAEVKKPGASVKVSCKASGYTFTSYAMHWVRQAPGQRLEWMGWINTGNGNTKYSQKFQGRVTITRDTSASTAYMELSSLRSEDTAVYYCARDPTYCSSTSCYPFSWFDPWGQGTLVTVSS
VL: NFMLTQPPSVSVAPGQTARITCGGNNIGSKSVHWYQQKPGQAPVLVVYDDSDRPSGIPERFSGSNSGNTATLTISRVEAGDEADYYCQVWDSTGDHSWVFGGGTKLTVL
notes: as for B1
B3: EY 6A (antibody, V domains shown)
VH: EVQLVESGGGVVQPGRSLRLSCAASAFTFSSYDMHWVRQAPGKGLEWVAVISYDGSNKYYADSVKGRFTISRDNSKNTLYLQMNSLRAEDTAVYYCAKDGGKLWVYYFDYWGQGTLVTVSS
VL: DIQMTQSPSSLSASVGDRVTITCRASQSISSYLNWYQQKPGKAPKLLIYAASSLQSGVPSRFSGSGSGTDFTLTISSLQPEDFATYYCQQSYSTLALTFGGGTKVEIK
notes: as for B1
B4: FI 4A (antibody, V domains shown)
VH: EVQLVESGGGLVKPGGSLRLSCAASGFTFSRFSMNWVRQAPGKGLEWVSSISSSGSYIYFADSVKGRFTISRDNAKNSLYLQMNSLRAEDTAIYYCATYLFGDSHTYWGQGTLVTVSS
VL: QSVLTQPHSVSESPGKTVTISCTGSSGSIASNYVQWYQQRPGSAPTTVIYEDNQRPSGVPDRFSGSIDSSSNSASLTISGLKTEDEADYYCQSYDSSNLHWVFGGGTKLTVL
notes: as for B1
B5: EZ 7A (antibody, V domains shown)
VH: EVQLVESGAEVKKPGESLKISCKGSGYSFTSYWIGWVRQMPGKGLEWMGIIYPGDSDTRYSPSFQGQVTISADKSISTAYLQWSSLKASDTAMYYCARGWVYRGFPYYGMDVWGQGTMVTVSS
VL: QSALTQPRSVSGSPGQSVTISCTGTSSDVGGYNYVSWYQQHPGKAPKLMIYDVSKRPSGVPDRFSGSKSGNTASLTISGLQAEDEADYYCCSYAGSYTLVFGGGTKLTVL
notes: as for B1
B6: FN 2C (antibody, V domains shown)
VH: EVQLLESGGGVVQPGRSLRLSCAASGFNFNNYGMHWVRQAPGKGLEWVATISYEGSKKFYVDSVKGRFTISKDNSKNTLYLQMNSLRVDDTAFYYCAKRREIFWLGEPPLSDAFDFWGQGTMVTVSS
VL: QSVLTQPPSVSGAPGQRVTISCTGSGSNIGAGYDVHWYQFLPGTAPQLLIYGNNNRPSGVPDRFSGSKSGTSASLAITGLQAEDEADYYCQSYDSSLSGSVFGGGTKLTVL
notes: as for B1

Target: T1, SARS-CoV-2 spike glycoprotein, full-length, prefusion-stabilised, on MDCK-SIAT1 cells (SARS-CoV-2, reference sequence, UniProt P0DTC2, 986KV987 to 986PP987 | 682RRAR685 to 682GSAG685)
T1 construct: also called MDCK-Spike
Experiment: flow cytometry on cells
Conditions: one partner purified

Binder | binding result
B1 | binds
B2 | binds
B3 | binds
B4 | binds
B5 | binds
B6 | binds

Target: T2, SARS-CoV-2 spike glycoprotein S1+S2 extracellular domain (SARS-CoV-2, reference sequence, UniProt P0DTC2)
T2 construct: also called full-length spike glycoprotein ectodomain
Experiment: ELISA
Conditions: not given

Binder | OD450 [OD450]
B1 | 1.43
B2 | 1.8
B3 | 1.75
B4 | 1.68
B5 | 1.66
B6 | 1.77
